Laboratory results as given in paper PMC1995591 (Molecular Microbiology, 2007).

T1: His6-KstRMtb (KstR) (Mycobacterium tuberculosis H37Rv, UniProt P96856 22-220)
T1 sequence: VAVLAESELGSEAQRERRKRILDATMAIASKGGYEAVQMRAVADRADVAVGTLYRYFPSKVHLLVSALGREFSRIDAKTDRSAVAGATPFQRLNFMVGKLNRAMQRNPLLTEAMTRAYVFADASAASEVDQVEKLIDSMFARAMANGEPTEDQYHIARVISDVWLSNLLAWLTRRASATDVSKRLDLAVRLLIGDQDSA

B1: Rv0223c probe (dsDNA)
DNA 1: GCGAAACGAGAACGTGTTCCATTATTAGG
DNA 2: CCTAATAATGGAACACGTTCTCGTTTCGC
B2: Rv3520c/Rv3521 probe (dsDNA)
DNA 1: TGTCGAGTAGAACAGGTTCTAACAACGGT
DNA 2: ACCGTTGTTAGAACCTGTTCTACTCGACA
B3: His6-tagged KstRMtb (Mycobacterium tuberculosis TetR-type regulator Rv3574) (natural protein)
chain: MSSANTNTSSAPDAPPRAVMKVAVLAESELGSEAQRERRKRILDATMAIASKGGYEAVQMRAVADRADVAVGTLYRYFPSKVHLLVSALGREFSRIDAKTDRSAVAGATPFQRLNFMVGKLNRAMQRNPLLTEAMTRAYVFADASAASEVDQVEKLIDSMFARAMANGEPTEDQYHIARVISDVWLSNLLAWLTRRASATDVSKRLDLAVRLLIGDQDSA
B4: Rv3570c/Rv3571 probe, motif 2 (dsDNA)
DNA 1: TCATAACTAGAACATGTTACAGAAAACCC
DNA 2: GGGTTTTCTGTAACATGTTCTAGTTATGA
B5: Rv0940c probe (dsDNA)
DNA 1: GTCAAATTAGAACACGTTCTAATCTCGTT
DNA 2: AACGAGATTAGAACGTGTTCTAATTTGAC
B6: Rv3503c/Rv3504 probe (dsDNA)
DNA 1: CAGAGACTAGAACGTGTTACAACCGGGAA
DNA 2: TTCCCGGTTGTAACACGTTCTAGTCTCTG
B7: Rv0551c/Rv0552 probe (dsDNA)
DNA 1: TCCAAATTGCAACACGTTCTAGTCTTGCC
DNA 2: GGCAAGACTAGAACGTGTTGCAATTTGGA
B8: Rv3531c/Rv3532 probe (dsDNA)
DNA 1: TCGACACTAGAACGTGTTCCTGTTTTGCG
DNA 2: CGCAAAACAGGAACACGTTCTAGTGTCGA
B9: Rv3515c/Rv3516 probe (Table 2 prints Rv3515c/Rv3532) (dsDNA)
DNA 1: ACCAAACTAGAACGTGTTACATTTCTTGA
DNA 2: TCAAGAAATGTAACACGTTCTAGTTTGGT
B10: Rv0953c/Rv0954 probe (dsDNA)
DNA 1: GCGCAGGTGGAACACGTTCTAATTCGGTG
DNA 2: CACCGAATTAGAACGTGTTCCACCTGCGC
B11: Rv3573c/Rv3574 (kstR) 29 bp probe (dsDNA)
DNA 1: TGCCCACTAGAACGTGTTCTAATAGTGCT
DNA 2: AGCACTATTAGAACACGTTCTAGTGGGCA
B12: Rv3545c/Rv3546 probe (dsDNA)
DNA 1: ATAGTAATGAAACGTGTTCTAGCCTGGCC
DNA 2: GGCCAGGCTAGAACACGTTTCATTACTAT
B13: unlabelled kstR 29 bp probe (dsDNA)
DNA 1: TGCCCACTAGAACGTGTTCTAATAGTGCT
DNA 2: AGCACTATTAGAACACGTTCTAGTGGGCA
B14: Rv3570c/Rv3571 probe, motif 1 (dsDNA)
DNA 1: GAAAGACTAGAACACGTTCCGATTTGTGT
DNA 2: ACACAAATCGGAACGTGTTCTAGTCTTTC
B15: Rv1894c/Rv1895 probe (dsDNA)
DNA 1: ATAGAACTGAAACGTGTTCTAGTTTAGTA
DNA 2: TACTAAACTAGAACACGTTTCAGTTCTAT

Tests used:
His6-KstRMtb (KstR) [1] = target: T1, His6-KstRMtb (KstR); experiment: EMSA
SEC = target: the molecule itself; experiment: SEC
His6-KstRMtb (KstR) [2] = target: T1, His6-KstRMtb (KstR); experiment: competition

| Binder | binding result (His6-KstRMtb (KstR) [1]) | other results |
| --- | --- | --- |
| B1 | no binding |  |
| B2 | binds |  |
| B3 |  | stoichiometry N (SEC): 2 |
| B4 | binds |  |
| B5 | binds |  |
| B6 | binds |  |
| B7 | binds |  |
| B8 | binds |  |
| B9 | binds |  |
| B10 | binds |  |
| B11 | binds |  |
| B12 | binds |  |
| B13 |  | binding result (His6-KstRMtb (KstR) [2]): binds |
| B14 | binds |  |
| B15 | binds |  |
